Laboratory results published in patent US20260258084A1, “New Peptides as Selective IL-23 Receptor Antagonists” (Sanofi, priority 2022, published 2026).
Starred links: 1 amine or outer side, 2 acyl side, 3 side chain; linkers in the order of their positions; H or OH if unused. Positions of bridges follow the written chain, without caps; N, C: chain ends. Non-standard residues stand in square brackets, D forms with d. Yde = (2S)-2-amino-3-[4-[2-(dimethylamino)ethoxy]phenyl]propanoic acid, CN(C)CCOc1ccc(C[C@H](N[*:1])C(=O)[*:2])cc1; Phe(4-OMe) = COc1ccc(C[C@H](N[*:1])C(=O)[*:2])cc1; Trp(7-Me) = Cc1cccc2c(C[C@H](N)C(=O)O)c[nH]c12; αMeLys(Me2) = CN(C)CCCC[C@](C)(N)C(=O)O; 2Nal = N[C@@H](Cc1ccc2ccccc2c1)C(=O)O; εLys = N[C@@H](CCCCN[*:1])C(=O)[*:2]; AEF = NCCOc1ccc(C[C@H](N)C(=O)O)cc1; NMe5Ava = CN(CCCCC(=O)[*:2])[*:1]; 3Pal = N[C@@H](Cc1cccnc1)C(=O)O; NMeN = CN[C@@H](CC(N)=O)C(=O)O; αMeL = CC(C)C[C@](C)(N)C(=O)O; Thp = NC1(C(=O)O)CCOCC1; Aib = CC(C)(N)C(=O)O; Ahx = NCCCCCC(=O)O; Ava = NCCCCC(=O)O; βAla = NCCC(=O)O; Sar = CNCC(=O)O

T1: IL-23 receptor on the surface of HEK-Blue IL-23 cells (UniProt Q5VWK5 24-629, limits assumed)
T1 sequence (looked up): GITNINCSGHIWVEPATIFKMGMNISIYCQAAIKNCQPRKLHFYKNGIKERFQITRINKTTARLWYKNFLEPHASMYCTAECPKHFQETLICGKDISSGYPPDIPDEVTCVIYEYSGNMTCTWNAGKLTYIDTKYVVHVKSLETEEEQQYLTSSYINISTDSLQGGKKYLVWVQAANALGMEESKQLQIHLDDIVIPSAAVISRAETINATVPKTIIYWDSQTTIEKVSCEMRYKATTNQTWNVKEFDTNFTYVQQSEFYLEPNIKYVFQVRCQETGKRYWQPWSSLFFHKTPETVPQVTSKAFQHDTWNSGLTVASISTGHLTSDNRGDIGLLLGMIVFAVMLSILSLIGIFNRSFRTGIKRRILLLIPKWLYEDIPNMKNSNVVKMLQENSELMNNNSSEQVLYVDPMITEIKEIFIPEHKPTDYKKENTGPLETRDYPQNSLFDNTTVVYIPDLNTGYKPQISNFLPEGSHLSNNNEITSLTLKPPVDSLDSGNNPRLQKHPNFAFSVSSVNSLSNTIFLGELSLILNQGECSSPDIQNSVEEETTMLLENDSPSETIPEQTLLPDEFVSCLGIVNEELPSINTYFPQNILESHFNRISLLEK

B1: Compound of SEQ ID NO: 64 (peptide)
peptide: [Ava]CNT[Trp(7-Me)]K(Ac)C[Yde][2Nal][Aib]EN[3Pal][Sar]-NH2
modifications: lactam N-11; disulfide 2-7
SMILES: CC(=O)NCCCC[C@@H]1NC(=O)[C@H](Cc2c[nH]c3c(C)cccc23)NC(=O)[C@H]([C@@H](C)O)NC(=O)[C@H](CC(N)=O)NC(=O)[C@@H]2CSSC[C@H](NC1=O)C(=O)N[C@@H](Cc1ccc(OCCN(C)C)cc1)C(=O)N[C@@H](Cc1ccc3ccccc3c1)C(=O)NC(C)(C)C(=O)N[C@H](C(=O)N[C@@H](CC(N)=O)C(=O)N[C@@H](Cc1cccnc1)C(=O)N(C)CC(N)=O)CCC(=O)NCCCCC(=O)N2
B2: Compound of SEQ ID NO: 60 (peptide)
peptide: [NMe5Ava]C[εLys](Ac)[Trp(7-Me)]K(Ac)C[Yde][2Nal][Aib]ENH-NH2
modifications: lactam N-10; disulfide 2-6; also: Cys2 bonded to epsilon-NH2 of Lys3, Lys3 alpha-amine acetylated (K[aAc])
B3: Compound of SEQ ID NO: 56 (peptide)
peptide: [Ava]CNT[Trp(7-Me)]K(Ac)C[Yde][2Nal][Thp]ES[3Pal][Sar]-NH2
modifications: lactam N-11; disulfide 2-7
SMILES: CC(=O)NCCCC[C@@H]1NC(=O)[C@H](Cc2c[nH]c3c(C)cccc23)NC(=O)[C@H]([C@@H](C)O)NC(=O)[C@H](CC(N)=O)NC(=O)[C@@H]2CSSC[C@H](NC1=O)C(=O)N[C@@H](Cc1ccc(OCCN(C)C)cc1)C(=O)N[C@@H](Cc1ccc3ccccc3c1)C(=O)NC1(CCOCC1)C(=O)N[C@H](C(=O)N[C@@H](CO)C(=O)N[C@@H](Cc1cccnc1)C(=O)N(C)CC(N)=O)CCC(=O)NCCCCC(=O)N2
B4: Compound of SEQ ID NO: 55 (peptide)
peptide: [Ava]CNT[Trp(7-Me)]K(Ac)C[Yde][2Nal][Thp]ENHX-NH2
modifications: lactam N-11; disulfide 2-7; not fully specified (residue 14); printed as Apt(§1)-C(@2)-N-T-Wim-K[Ac]-C(@2)-Yde-Nal-Thp-E(§1)-N—H-Mep-NH2
B5: Compound of SEQ ID NO: 6 (peptide)
peptide: [Ahx]C[NMeN]TWQC[Phe(4-OMe)][2Nal][Aib]DNN-NH2
modifications: lactam N-11; disulfide 2-7
SMILES: COc1ccc(C[C@@H]2NC(=O)[C@@H]3CSSC[C@H](NC(=O)CCCCCNC(=O)C[C@@H](C(=O)N[C@@H](CC(N)=O)C(=O)N[C@@H](CC(N)=O)C(N)=O)NC(=O)C(C)(C)NC(=O)[C@H](Cc4ccc5ccccc5c4)NC2=O)C(=O)N(C)[C@@H](CC(N)=O)C(=O)N[C@@H]([C@@H](C)O)C(=O)N[C@@H](Cc2c[nH]c4ccccc24)C(=O)N[C@@H](CCC(N)=O)C(=O)N3)cc1
B6: Compound of SEQ ID NO: 54 (peptide)
peptide: [Ava]CNT[Trp(7-Me)]K(Ac)C[Yde][2Nal][αMeLys(Me2)]EN[dL]-NH2
modifications: lactam N-11; disulfide 2-7
SMILES: CC(=O)NCCCC[C@@H]1NC(=O)[C@H](Cc2c[nH]c3c(C)cccc23)NC(=O)[C@H]([C@@H](C)O)NC(=O)[C@H](CC(N)=O)NC(=O)[C@@H]2CSSC[C@H](NC1=O)C(=O)N[C@@H](Cc1ccc(OCCN(C)C)cc1)C(=O)N[C@@H](Cc1ccc3ccccc3c1)C(=O)N[C@@](C)(CCCCN(C)C)C(=O)N[C@H](C(=O)N[C@@H](CC(N)=O)C(=O)N[C@H](CC(C)C)C(N)=O)CCC(=O)NCCCCC(=O)N2
B7: Compound of SEQ ID NO: 59 (peptide)
peptide: [Ava]C[εLys](Ac)WK(Ac)C[Yde][2Nal][αMeLys(Me2)]EN[3Pal][Sar]-NH2
modifications: lactam N-10; disulfide 2-6; also: Cys2 bonded to epsilon-NH2 of Lys3, Lys3 alpha-amine acetylated (K[aAc])
B8: Compound of SEQ ID NO: 50 (peptide)
peptide: [Ava]CNT[Trp(7-Me)]K(Ac)C[Yde][2Nal][αMeL]ENH[βAla]-NH2
modifications: lactam N-11; disulfide 2-7
SMILES: CC(=O)NCCCC[C@@H]1NC(=O)[C@H](Cc2c[nH]c3c(C)cccc23)NC(=O)[C@H]([C@@H](C)O)NC(=O)[C@H](CC(N)=O)NC(=O)[C@@H]2CSSC[C@H](NC1=O)C(=O)N[C@@H](Cc1ccc(OCCN(C)C)cc1)C(=O)N[C@@H](Cc1ccc3ccccc3c1)C(=O)N[C@@](C)(CC(C)C)C(=O)N[C@H](C(=O)N[C@@H](CC(N)=O)C(=O)N[C@@H](Cc1c[nH]cn1)C(=O)NCCC(N)=O)CCC(=O)NCCCCC(=O)N2
B9: Compound of SEQ ID NO: 51 (peptide)
peptide: [Ava]CNT[Trp(7-Me)]K(Ac)C[Yde][2Nal][Thp]EN[3Pal]-NH2
modifications: lactam N-11; disulfide 2-7
SMILES: CC(=O)NCCCC[C@@H]1NC(=O)[C@H](Cc2c[nH]c3c(C)cccc23)NC(=O)[C@H]([C@@H](C)O)NC(=O)[C@H](CC(N)=O)NC(=O)[C@@H]2CSSC[C@H](NC1=O)C(=O)N[C@@H](Cc1ccc(OCCN(C)C)cc1)C(=O)N[C@@H](Cc1ccc3ccccc3c1)C(=O)NC1(CCOCC1)C(=O)N[C@H](C(=O)N[C@@H](CC(N)=O)C(=O)N[C@@H](Cc1cccnc1)C(N)=O)CCC(=O)NCCCCC(=O)N2
B10: Compound of SEQ ID NO: 49 (peptide)
peptide: [Ava]CNT[Trp(7-Me)]K(Ac)C[Yde][2Nal][Thp]ENH[βAla]-NH2
modifications: lactam N-11; disulfide 2-7
SMILES: CC(=O)NCCCC[C@@H]1NC(=O)[C@H](Cc2c[nH]c3c(C)cccc23)NC(=O)[C@H]([C@@H](C)O)NC(=O)[C@H](CC(N)=O)NC(=O)[C@@H]2CSSC[C@H](NC1=O)C(=O)N[C@@H](Cc1ccc(OCCN(C)C)cc1)C(=O)N[C@@H](Cc1ccc3ccccc3c1)C(=O)NC1(CCOCC1)C(=O)N[C@H](C(=O)N[C@@H](CC(N)=O)C(=O)N[C@@H](Cc1c[nH]cn1)C(=O)NCCC(N)=O)CCC(=O)NCCCCC(=O)N2
B11: Compound of SEQ ID NO: 63 (peptide)
peptide: [Ava]CNT[Trp(7-Me)]QC[Yde][2Nal][αMeL]EN[3Pal][Sar]-NH2
modifications: lactam N-11; disulfide 2-7
SMILES: Cc1cccc2c(C[C@@H]3NC(=O)[C@H]([C@@H](C)O)NC(=O)[C@H](CC(N)=O)NC(=O)[C@@H]4CSSC[C@H](NC(=O)[C@H](CCC(N)=O)NC3=O)C(=O)N[C@@H](Cc3ccc(OCCN(C)C)cc3)C(=O)N[C@@H](Cc3ccc5ccccc5c3)C(=O)N[C@@](C)(CC(C)C)C(=O)N[C@H](C(=O)N[C@@H](CC(N)=O)C(=O)N[C@@H](Cc3cccnc3)C(=O)N(C)CC(N)=O)CCC(=O)NCCCCC(=O)N4)c[nH]c12
B12: Compound of SEQ ID NO: 62 (peptide)
peptide: [Ava]CNT[Trp(7-Me)]QC[Yde][2Nal][Aib]EN[3Pal][Sar]-NH2
modifications: lactam N-11; disulfide 2-7
SMILES: Cc1cccc2c(C[C@@H]3NC(=O)[C@H]([C@@H](C)O)NC(=O)[C@H](CC(N)=O)NC(=O)[C@@H]4CSSC[C@H](NC(=O)[C@H](CCC(N)=O)NC3=O)C(=O)N[C@@H](Cc3ccc(OCCN(C)C)cc3)C(=O)N[C@@H](Cc3ccc5ccccc5c3)C(=O)NC(C)(C)C(=O)N[C@H](C(=O)N[C@@H](CC(N)=O)C(=O)N[C@@H](Cc3cccnc3)C(=O)N(C)CC(N)=O)CCC(=O)NCCCCC(=O)N4)c[nH]c12
B13: Compound of SEQ ID NO: 58 (peptide)
peptide: [Ava]CNTWK(Ac)C[Yde][2Nal][αMeLys(Me2)]EN[3Pal][Sar]-NH2
modifications: lactam N-11; disulfide 2-7
SMILES: CC(=O)NCCCC[C@@H]1NC(=O)[C@H](Cc2c[nH]c3ccccc23)NC(=O)[C@H]([C@@H](C)O)NC(=O)[C@H](CC(N)=O)NC(=O)[C@@H]2CSSC[C@H](NC1=O)C(=O)N[C@@H](Cc1ccc(OCCN(C)C)cc1)C(=O)N[C@@H](Cc1ccc3ccccc3c1)C(=O)N[C@@](C)(CCCCN(C)C)C(=O)N[C@H](C(=O)N[C@@H](CC(N)=O)C(=O)N[C@@H](Cc1cccnc1)C(=O)N(C)CC(N)=O)CCC(=O)NCCCCC(=O)N2
B14: Compound of SEQ ID NO: 53 (peptide)
peptide: [Ahx]C[Ava]WQC[AEF][2Nal][Aib]DAG-NH2
modifications: lactam N-10; disulfide 2-6
SMILES: C[C@H](NC(=O)[C@@H]1CC(=O)NCCCCCC(=O)N[C@H]2CSSC[C@H](NC(=O)[C@H](CCC(N)=O)NC(=O)[C@H](Cc3c[nH]c4ccccc34)NC(=O)CCCCNC2=O)C(=O)N[C@@H](Cc2ccc(OCCN)cc2)C(=O)N[C@@H](Cc2ccc3ccccc3c2)C(=O)NC(C)(C)C(=O)N1)C(=O)NCC(N)=O
B15: Compound of SEQ ID NO: 52 (peptide)
peptide: [Ava]CNT[Trp(7-Me)]QC[Yde][2Nal][Aib]ENH-NH2
modifications: lactam N-11; disulfide 2-7
SMILES: Cc1cccc2c(C[C@@H]3NC(=O)[C@H]([C@@H](C)O)NC(=O)[C@H](CC(N)=O)NC(=O)[C@@H]4CSSC[C@H](NC(=O)[C@H](CCC(N)=O)NC3=O)C(=O)N[C@@H](Cc3ccc(OCCN(C)C)cc3)C(=O)N[C@@H](Cc3ccc5ccccc5c3)C(=O)NC(C)(C)C(=O)N[C@H](C(=O)N[C@@H](CC(N)=O)C(=O)N[C@@H](Cc3c[nH]cn3)C(N)=O)CCC(=O)NCCCCC(=O)N4)c[nH]c12

Target: T1, IL-23 receptor on the surface of …
Test: cell-based or functional assay

pSTAT3 (nM) | Binder
0.22 | B1
0.16 | B2
0.16 | B3
9.66 | XCNTWQCXXXENN (Apt(§1)-C(@2)-N-T-W-Q-C(@2)-Yae-Nal-Aib-E(§1)-N-N-NH2) [Compound of SEQ ID NO: 5]
0.95 | B4
72.9 | B5
2.59 | B6
0.07 | B7
0.98 | B8
0.05 | B9
1.79 | B10
0.2 | B11
0.2 | B12
0.1 | B13
60.8 | B14
1.25 | B15
